Experimental data: patent US20200024330A1

Tests used:
Assay in all cases: cell-based or functional assay
[1] = target: HIV-1 Env of pseudovirus MGRM-Chronic-B-003, clade B (HIV-1)
[2] = target: HIV-1 Env of isolate MGRM-D-024 (clade D) (HIV-1)
[3] = target: HIV-1 MGRM-C-012 Env (HIV-1)
[4] = target: HIV-1 Env of isolate MGRM-D-022 (clade D) (HIV-1)
[5] = target: HIV-1 Env of isolate 92UG001 (clade D) (HIV-1)
[6] = target: HIV-1 MGRM-F1-023 Env (pseudovirus) (HIV-1)
[7] = target: HIV-1 MGRM-C-001 Env (HIV-1)
[8] = target: HIV-1 Env of isolate MGRM-D-018 (clade D) (HIV-1)
[9] = target: HIV-1 98CN006 envelope glycoprotein (Env) on pseudovirus (HIV-1)
[10] = target: HIV-1 Env of isolate MGRM-G-017 (clade G pseudovirus) (HIV-1)
[11] = target: HIV-1 Env of isolate MGRM-D-019 (clade D) (HIV-1)
[12] = target: HIV-1 Env of isolate MGRM-G-011 (clade G pseudovirus) (HIV-1)
[13] = target: HIV-1 MGRM-F1-020 Env (pseudovirus) (HIV-1)
[14] = target: HIV-1 MGRM-A-012 envelope glycoprotein (Env) (HIV-1)
[15] = target: HIV-1 MGRM-F1-010 Env (pseudovirus) (HIV-1)
[16] = target: HIV-1 93MW959 envelope glycoprotein (Env) on pseudovirus (HIV-1)
[17] = target: HIV-1 MGRM-C-013 Env (HIV-1)
[18] = target: HIV-1 MGRM-C-023 Env (HIV-1)
[19] = target: HIV-1 Env of isolate MGRM-G-016 (clade G pseudovirus) (HIV-1)
[20] = target: HIV-1 Env of isolate MGRM-C-010 (HIV-1)
[21] = target: HIV-1 Env of isolate MGRM-C-020 (HIV-1)
[22] = target: HIV-1 Env of isolate 92WR020 (HIV-1)
[23] = target: HIV-1 JR-CSF Env E172A (HIV-1 (isolate JR-CSF)) (UniProt P20871)
[24] = target: HIV-1 Env of isolate MGRM-C-006 (HIV-1)
[25] = target: HIV-1 Env of isolate MGRM-C-013 (HIV-1)
[26] = target: HIV-1 Env of isolate TRJ04551.58 (HIV-1)
[27] = target: HIV-1 Env of isolate 92UG024 (HIV-1)
[28] = target: HIV-1 Env of isolate MGRM-F1-021 (subtype F), on pseudovirus (HIV-1)
[29] = target: HIV-1 Env of isolate SC422661.8 (HIV-1)
[30] = target: HIV-1 Env of isolate 93TH305 (pseudovirus) (HIV-1 isolate 93TH305, subtype B)
[31] = target: HIV-1 Env of isolate MGRM-A-008 (clade A), on pseudovirus (HIV-1)
[32] = target: HIV-1 Env of isolate 6535.3 (pseudovirus) (HIV-1 isolate 6535.3, subtype B)
[33] = target: HIV-1 JR-CSF Env E466A (HIV-1 (isolate JR-CSF)) (UniProt P20871)
[34] = target: HIV-1 Env of isolate 93WR029 (HIV-1)
[35] = target: HIV-1 Env of isolate CAAN.A2 (HIV-1)
[36] = target: HIV-1 JR-CSF Env N197A (HIV-1 (isolate JR-CSF)) (UniProt P20871)
[37] = target: HIV-1 Env of isolate MGRM-D-020 (HIV-1)

Substance: 1443_C16 (PG16) (TCN-116) (antibody)
- IC50 (µg/ml), pseudovirus neutralization [1]: 0.19 µg/mL
- IC50 (µg/ml), pseudovirus neutralization [2]: 0.02 µg/mL
- IC50 [3]: 0.48 µg/mL
- IC50 (µg/ml), pseudovirus neutralization [4]: > 50 µg/mL
- IC50 (µg/ml), pseudovirus neutralization [5]: > 50 µg/mL
- IC50 (µg/ml), pseudovirus neutralization [6]: > 50 µg/mL
- IC50 [7]: 16.8 µg/mL
- IC50 (µg/ml), pseudovirus neutralization [8]: 0.004 µg/mL
- IC50 (µg/ml), pseudovirus neutralization [9]: > 50 µg/mL
- IC50 (µg/ml), pseudovirus neutralization [10]: 0.02 µg/mL
- IC50 (µg/ml), pseudovirus neutralization [11]: 0.01 µg/mL
- IC50 (µg/ml), pseudovirus neutralization [12]: 0.04 µg/mL
- IC50 (µg/ml), pseudovirus neutralization [13]: 4.35 µg/mL
- IC50 (µg/ml), pseudovirus neutralization [14]: 20.7 µg/mL
- IC50 (µg/ml), pseudovirus neutralization [15]: 0.01 µg/mL
- IC50 (µg/ml), pseudovirus neutralization [16]: 0.007 µg/mL
- IC50 [17]: > 50 µg/mL
- IC50 [18]: 0.09 µg/mL
- IC50 (µg/ml), pseudovirus neutralization [19]: 11.3 µg/mL

Substance: 1495_C14 (PGC14) (antibody)
- IC50 (µg/ml), pseudovirus neutralization [1]: > 50 µg/mL
- IC50 (µg/ml), pseudovirus neutralization [2]: > 50 µg/mL
- IC50 [3]: > 50 µg/mL
- IC50 (µg/ml), pseudovirus neutralization [4]: > 50 µg/mL
- IC50 (µg/ml), pseudovirus neutralization [5]: > 50 µg/mL
- IC50 (µg/ml), pseudovirus neutralization [6]: > 50 µg/mL
- IC50 [7]: > 50 µg/mL
- IC50 (µg/ml), pseudovirus neutralization [8]: > 50 µg/mL
- IC50 (µg/ml), pseudovirus neutralization [9]: > 50 µg/mL
- IC50 (µg/ml), pseudovirus neutralization [10]: > 50 µg/mL
- IC50 (µg/ml), pseudovirus neutralization [11]: > 50 µg/mL
- IC50 (µg/ml), pseudovirus neutralization [12]: > 50 µg/mL
- IC50 (µg/ml), pseudovirus neutralization [13]: > 50 µg/mL
- IC50 (µg/ml), pseudovirus neutralization [14]: > 50 µg/mL
- IC50 (µg/ml), pseudovirus neutralization [15]: > 50 µg/mL
- IC50 (µg/ml), pseudovirus neutralization [16]: > 50 µg/mL
- IC50 [17]: > 50 µg/mL
- IC50 [18]: > 50 µg/mL
- IC50 (µg/ml), pseudovirus neutralization [19]: > 50 µg/mL

Substance: 5147_N06 (PGT-130) (antibody)
- IC50 [20]: > 50 µg/mL
- IC50 [21]: > 50 µg/mL
- neutralization IC50 [8]: 0.0378 µg/mL
- neutralization IC80 [8]: 0.289 µg/mL
- neutralization IC90 [8]: 2.31 µg/mL
- neutralization IC95 [8]: > 10 µg/mL
- neutralization IC50 [22]: 0.039 µg/mL
- Fold IC50 increase relative to wild-type [23]: 1.4 fold
- IC50 [24]: 0.095 µg/mL
- IC50 [25]: > 50 µg/mL
- IC50 [26]: 0.023 µg/mL
- IC50 [27]: > 50 µg/mL
- IC50, pseudovirus neutralization [28]: > 50 µg/mL
- IC50 [29]: > 50 µg/mL
- IC50 (µg/mL) neutralization [30]: 0.021 µg/mL
- IC50, single-round pseudovirus neutralization [31]: > 50 µg/mL
- IC50 (µg/mL) neutralization [32]: 0.031 µg/mL
- Fold IC50 increase relative to wild-type [33]: 1.7 fold
- neutralization IC50 [34]: 34.3 µg/mL
- IC50 [35]: > 50 µg/mL
- Fold IC50 increase relative to wild-type [36]: 1.2 fold
- IC50 [37]: 24.7 µg/mL

Substance: b12 (antibody)
- IC50 (µg/ml), pseudovirus neutralization [1]: > 50 µg/mL
- IC50 (µg/ml), pseudovirus neutralization [2]: 5.92 µg/mL
- IC50 [3]: > 50 µg/mL
- IC50 (µg/ml), pseudovirus neutralization [4]: 17.6 µg/mL
- IC50 (µg/ml), pseudovirus neutralization [5]: 1.01 µg/mL
- IC50 (µg/ml), pseudovirus neutralization [6]: > 50 µg/mL
- IC50 [7]: > 50 µg/mL
- IC50 (µg/ml), pseudovirus neutralization [8]: 1.39 µg/mL
- IC50 (µg/ml), pseudovirus neutralization [9]: > 50 µg/mL
- IC50 (µg/ml), pseudovirus neutralization [10]: > 50 µg/mL
- IC50 (µg/ml), pseudovirus neutralization [11]: > 50 µg/mL
- IC50 (µg/ml), pseudovirus neutralization [12]: > 50 µg/mL
- IC50 (µg/ml), pseudovirus neutralization [13]: > 50 µg/mL
- IC50 (µg/ml), pseudovirus neutralization [14]: > 50 µg/mL
- IC50 (µg/ml), pseudovirus neutralization [15]: > 50 µg/mL
- IC50 (µg/ml), pseudovirus neutralization [16]: > 50 µg/mL
- IC50 [17]: > 50 µg/mL
- IC50 [18]: 13.9 µg/mL
- IC50 (µg/ml), pseudovirus neutralization [19]: > 50 µg/mL
